The values below come from patent US10876098B2, “Polynucleotide, host cell and a method to recombinantly produce the protein encoded by said polynucleotide having peroxygenative activity” (CONSEJO SUPERIOR DE INVESTIGACIONES CIENTIFICAS (CSIC), priority 2015, dated 2020).

Substrate in data set [1]: CC(C)NCC(O)COc1cccc2ccccc12
Briefly: purified protein, by the assay type.

Substrate in data set [2]: OO
Briefly: purified protein, by the assay type. Conditions: other: H2O2, benzyl alcohol as substrate at saturation, pH 7.0.

Substrate in data set [3]: CCn1c(=NN=c2sc3cc(S(=O)(=O)O)ccc3n2CC)sc2cc(S(=O)(=O)O)ccc21
Briefly: purified protein, by the assay type. Conditions: other: 100 mM sodium phosphate/citrate pH 4.0, 2 mM H2O2 (ABTS); pH 4.0.

A short description of another data set: Optimum pH for DMP. The class given is biochemical.
Data set [4] in a line: Thermostability assay (T50), culture supernatants, residual activity with ABTS. The class given is physicochemical. The note with it: culture supernatants; temperature at which the enzyme retains 50% of its activity after 10 minutes of incubation. How it is done:
An individual S. cerevisiae colony was selected with the corresponding clone (grown in a SC drop-out minimal medium plate: 100 mL of 6.7% yeast nitrogen base, 100 mL of 19.2 g/L uracil-free amino acid supplement, 100 mL of 20% glucose, 1 mL of 25 g/L chloramphenicol and ddH2O up to 1,000 mL) was inoculated in 2 mL of selective minimal medium (as in the SC plate medium, but with 20 g of bacto agar and rafinose instead of galactose) and was incubated for 48 hour at 30° C. and 220 RPM. An aliquot of this culture was taken such that, upon inoculating it in 5 mL of new minimal medium, optical density at 600 nm would have a value of 0.25 (optical density, OD600=0.25). This starter was incubated until completing two full growth cycles (between 6 and 8 hours), at which time 1 mL of cells were taken to inoculate 9 mL of expression medium in a 100 mL flask (OD600=0.1). This culture of each clone was incubated for 72 hours at 25° C. and 220 RPM (at peak UPO activity; OD600=25-30), the cells were separated by centrifugation (10 minutes at 4,500 RPM and 4° C.) and supernatant was filtered (using a glass and nitrocellulose filter with a pore size of 0.45 μm). Appropriate dilutions of the supernatants were prepared so that aliquots of 20 μL would give rise to a linear response in kinetic mode. 50 μL of supernatant were used for each point in a temperature gradient created by means of thermocyclator, from 30 to 80° C. After incubating for 10 minutes, the aliquots were cooled in ice for 10 minute and tempered at room temperature for 5 minutes. […] The thermostability values were calculated in accordance with the ratio between the residual activities incubated at different temperatures and the value of initial activity at room temperature. The value of T50 was determined as the value of the temperature at which the protein loses 50% of it initial activity after incubating for 10 minutes.
An individual S. cerevisiae colony was selected with the corresponding clone (grown on a SC drop-out minimal medium plate: 100 mL of 6.7% yeast nitrogen base, 100 mL of 19.2 g/L uracil-free amino acid supplement, 100 mL of 20% glucose, 1 mL of 25 g/L chloramphenicol and ddH2O up to 1,000 mL), was inoculated in 3 mL of selective minimal medium (like the SC plate medium, but with 20 g of bacto agar and rafinose instead of galactose) and incubated for 48 hours at 30° C. and 220 RPM. […] The thermostability values were calculated in accordance with the ratio between the residual activities incubated at different temperatures and the value of initial activity at room temperature. The value of T50 was determined as as the temperature value at which the protein loses 50% of its initial activity after incubating for […].

Data set [5] is described as follows: Naphthalene transformation reaction analysed by HPLC-PDA. The class given is biochemical. How it is done: A) Products formed after 15 minutes of reaction stopped with 20 μL of HCl 37% (PaDa-I, black bars; JaWa, grey bars). […] C) and D) Monitoring of the reaction for 270 minutes (without adding HCl) for the PaDa-I (C) and JaWa (D) mutants.
The reactions were analysed by means of chromatography in reverse phase (HPLC). The equipment is composed by a tertiary pump (Varian-Agilent Technologies, USA) coupled to an autosampler (Merck Millipore, MA, USA); an ACE C18 PFP column was used for separation (pentafluorophenyl, 15 cm×4.6 cm) at 45° C. and detection was performed using a photodiode detector (PDA) (Varian-Agilent Technologies, USA). The mobile phase selected was 70% methanol and 30% ddH2O (in both cases with 0.1% of acetic acid) at a flow rate of 0.8 mL/min. The reaction was quantified at 268 nm (based on standard HPLCs). […] For long reaction times, the conditions used were those described earlier but without stopping the reaction with HCl. A sample of 10 μL was injected and analysed at different reaction times (from 1 to 270 minutes).

The nature of a further data set: Optimum pH for ABTS. Format: biochemical.
Data set [6] can be described thus: Isoelectric point by two-dimensional electrophoresis. The class given is physicochemical. As to the method: The analyses were performed using an Autoflex III MALDI-TOF-TOF unit with smartbeam laser (Bruker Daltonics). The samples were evaluated in positive mode. The method was calibrated using BSA with standard, thereby covering a range of 15,000 to 70,000 Da. In order to determine the isoelectric point of the UPO variants, 8 μg of pure enzyme were subjected to two-dimensional electrophoresis. These experiments were carried out at the Proteomic and Genomic Service of the Biological Research Centre (CIB-CSIC, Spain).

A short description of data set [7]: Optimum pH for naphthalene. Format: biochemical.
[8] abbreviates: other: 100 mM potassium phosphate pH 7.0, 2 mM H2O2 (propranolol).
Setting [9] is: other: 100 mM potassium phosphate pH 7.0, 2 mM H2O2 (DMP, propranolol).
Where [10] appears, read: 15 minutes of reaction stopped with HCl, 6.6 nM enzyme, 1 mM naphthalene, 1 mM H2O2.

B1: Agrocybe aegerita unspecific peroxygenase AaeUPO1 (UPO, EC 1.11.2.1), wild type, SEQ ID NO: 2 (SEQ ID NO: 4 with wild-type signal peptide) (Cyclocybe aegerita) (protein)
chain: EPGLPPGPLENSSAKLVNDEAHPWKPLRPGDIRGPCPGLNTLASHGYLPRNGVATPVQIINAVQEGLNFDNQAAVFATYAAHLVDGNLITDLLSIGRKTRLTGPDPPPPASVGGLNEHGTFEGDASMTRGDAFFGNNHDFNETLFEQLVDYSNRFGGGKYNLTVAGELRFKRIQDSIATNPNFSFVDFRFFTAYGETTFPANLFVDGRRDDGQLDMDAARSFFQFSRMPDDFFRAPSPRSGTGVEVVIQAHPMQPGRNVGKINSYTVDPTSSDFSTPCLMYEKFVNITVKSLYPNPTVQLRKALNTNLDFFFQGVAAGCTQVFPYGRD
As to B1, in [1] (setting [8]), the Michaelis constant (Km) is given as 2,239 ± 333 μM, the turnover number (kcat) stood at 150 ± 12 s⁻¹ and the kcat/Km was determined as 67000 ± 4800 M⁻¹ s⁻¹. Moreover, in [2], the Km is listed as 1,370 ± 162 μM, the kcat amounted to 290 s⁻¹ and the kcat/Km is 210000 M⁻¹ s⁻¹. Also, in data set [3], the Km is recorded as 25-0 ± 2.5 μM, the turnover number (kcat) stood at 221 s⁻¹ and the kcat/Km is 8.8e+06 M⁻¹ s⁻¹.

B2: Agrocybe aegerita peroxygenase AaeUPO1 variant SoLo (JaWa + F191S: V57A, L67F, V75I, F191S, G241D, I248V, R257K, F311L), SEQ ID NO: 42 (Cyclocybe aegerita; … (protein)
chain: EPGLPPGPLENSSAKLVNDEAHPWKPLRPGDIRGPCPGLNTLASHGYLPRNGVATPAQIINAVQEGFNFDNQAAIFATYAAHLVDGNLITDLLSIGRKTRLTGPDPPPPASVGGLNEHGTFEGDASMTRGDAFFGNNHDFNETLFEQLVDYSNRFGGGKYNLTVAGELRFKRIQDSIATNPNFSFVDFRFSTAYGETTFPANLFVDGRRDDGQLDMDAARSFFQFSRMPDDFFRAPSPRSDTGVEVVVQAHPMQPGKNVGKINSYTVDPTSSDFSTPCLMYEKFVNITVKSLYPNPTVQLRKALNTNLDFLFQGVAAGCTQVFPYGRD
On to B2, for which, in data set [1] (setting [8]), the Km amounted to 391 ± 97 µM, the kcat stood at 497 ± 35 s⁻¹ and the kcat/Km was 1.3e+06 ± 20000 M⁻¹ s⁻¹. For the same molecule, in data set [2], the Km was 1,430 ± 153 μM, the kcat was found to be 446 s⁻¹ and the kcat/Km turned out to be 310000 ± 18000 M⁻¹ s⁻¹.

B3: Agrocybe aegerita peroxygenase AaeUPO1 variant JaWa (PaDa-I + G241D, R257K: V57A, L67F, V75I, G241D, I248V, R257K, F311L), SEQ ID NO: 24 (Cyclocybe aegerita; … (protein)
chain: EPGLPPGPLENSSAKLVNDEAHPWKPLRPGDIRGPCPGLNTLASHGYLPRNGVATPAQIINAVQEGFNFDNQAAIFATYAAHLVDGNLITDLLSIGRKTRLTGPDPPPPASVGGLNEHGTFEGDASMTRGDAFFGNNHDFNETLFEQLVDYSNRFGGGKYNLTVAGELRFKRIQDSIATNPNFSFVDFRFFTAYGETTFPANLFVDGRRDDGQLDMDAARSFFQFSRMPDDFFRAPSPRSDTGVEVVVQAHPMQPGKNVGKINSYTVDPTSSDFSTPCLMYEKFVNITVKSLYPNPTVQLRKALNTNLDFLFQGVAAGCTQVFPYGRD
Take B3: in data set [1] (setting [9]), the Km was determined as 244 ± 92 µM, the turnover number (kcat) came to 765 ± 76 s⁻¹ and the kcat/Km came to 3.1e+06 ± 90000 M⁻¹ s⁻¹.

B4: PaDa-I: AaeUPO1 mutant with L67F, I248V, F311L, V75I, V57A and evolved signal peptide, SEQ ID NO: 18; previously published parental (protein)
chain: MKYFPLFPTLVYAVGVVAFPDYASLAGLSQQELDAIIPTLEAREPGLPPGPLENSSAKLVNDEAHPWKPLRPGDIRGPCPGLNTLASHGYLPRNGVATPAQIINAVQEGFNFDNQAAIFATYAAHLVDGNLITDLLSIGRKTRLTGPDPPPPASVGGLNEHGTFEGDASMTRGDAFFGNNHDFNETLFEQLVDYSNRFGGGKYNLTVAGELRFKRIQDSIATNPNFSFVDFRFFTAYGETTFPANLFVDGRRDDGQLDMDAARSFFQFSRMPDDFFRAPSPRSGTGVEVVVQAHPMQPGRNVGKINSYTVDPTSSDFSTPCLMYEKFVNITVKSLYPNPTVQLRKALNTNLDFLFQGVAAGCTQVFPYGRD
As for B4, the “Optimum pH for DMP” value in the data set “Optimum pH for DMP” is 6.0. Further, in data set [4], the “Thermal stability, T50” value came out at 57.6 °C. For the same molecule, in data set [5] (setting [10]), the “regioselectivity, 1-naphthol” value worked out at 92% and the “regioselectivity, 2-naphthol” value came to 8%. Also, the “time at which formation of the epoxide intermediary reached its maximum” value in [5] (270 minute reaction at pH 7.0) was approximately 40 min. The “production of 1-naphthol” value in [5] (270 minutes at pH 7.0 without stopping the reaction) is 0.14 mM. In data set [5] (calculated using the production value of 1-naphthol after 270 minutes), the “total turnover numbers (TTN), 1-naphthol” value is reported as 20,000 μmoles of product/μmoles of en. Also, in data set [5] (long reaction times, 270 minutes at pH 7.0 without stopping the reaction), the “regioselectivity against 1-naphthol” value is reported as 97%. Further, the “Optimum pH for ABTS” value in the data set “Optimum pH for ABTS” was 4.0. In data set [6], this molecule registered a pI of 5.5. The “Optimum pH for naphthalene” value in [7] was 6.0.
